Legend:
[1] = target: the molecule itself; assay: cryo-EM structure; single-particle cryo-EM of hZnT7-Fab complexes purified by SEC in 0.02% GDN (Talos Arctica for first maps, CRYO ARM 300II for final data); samples with 1 mM EDTA, with 10 µM Zn2+ or with 200 or 300 µM Zn2+ added
[2] = target: T1, human ZnT7 (hZnT7) with an N-terminal PA-tag (human, UniProt Q8NEW0); assay: ELISA + SEC; liposome ELISA on biotinylated hZnT7 proteoliposomes immobilised on streptavidin-coated microplates (with negative selection on SDS-denatured hZnT7); formation of stable complexes by fluorescence-detection SEC
T1 construct: human zinc transporter ZnT7, UniProt Q8NEW0; cDNA synthesized with codon optimization; the final model holds residues 22-376; In the antibody screening the purified protein was reconstituted into (biotinylated) proteoliposomes; also called hZnT7 WT; wild-type hZnT7

[3] = target: T1, human ZnT7 (hZnT7) with an N-terminal …; assay: cryo-EM structure; single-particle cryo-EM of hZnT7-Fab complexes purified by SEC in 0.02% GDN (Talos Arctica for first maps, CRYO ARM 300II for final data); samples with 1 mM EDTA, with 10 µM Zn2+ or with 200 or 300 µM Zn2+ added; conditions: both partners purified

B1: human ZnT7 (hZnT7) with an N-terminal PA-tag (natural protein)
chain: MLPLSIKDDEYKPPKFNLFGKISGWFRSILSDKTSRNLFFFLCLNLSFAFVELLYGIWSNCLGLISDSFHMFFDSTAILAGLAASVISKWRDNDAFSYGYVRAEVLAGFVNGLFLIFTAFFIFSEGVERALAPPDVHHERLLLVSILGFVVNLIGIFVFKHGGHGHSHGSGHGHSHSLFNGALDQAHGHVDHCHSHEVKHGAAHSHDHAHGHGHFHSHDGPSLKETTGPSRQILQGVFLHILADTLGSIGVIASAIMMQNFGLMIADPICSILIAILIVVSVIPLLRESVGILMQRTPPLLENSLPQCYQRVQQLQGVYSLQEQHFWTLCSDVYVGTLKLIVAPDADARWILSQTHNIFTQAGVRQLYVQIDFAAM
notes: human zinc transporter ZnT7, UniProt Q8NEW0; cDNA synthesized with codon optimization; the final model holds residues 22-376; In the antibody screening the purified protein was reconstituted into (biotinylated) proteoliposomes; also called hZnT7 WT; wild-type hZnT7
With B1 the “stoichiometry N” value [1] was 2.

B2: mouse monoclonal antibody YN7114-08 against hZnT7 (parent of Fab#1) (antibody, V domains shown)
VH: EVQLQESGPGLVAPSQSLSITCTVSGFSLTNYAVHWVRQSPGKGLEWLGVIWSNGRTDYNAAFISRLSISKDNSKSQVFFKMNSLQADDTAIYYCARKLAYEGAMDYWGQGTSVTVSS
VL: DIVLTQSPASLAVSLRRRATISCRASESVDGYGHSFMHWYQQKSGQPPKLLIYRASNLESGVPARFSGSGSRTDFTLTIDPVEADDAATYYCQQSNEDPYTFGSGTKLEIK
notes: Whole antibody as screened by liposome ELISA and fluorescence-detection SEC; source: mouse hybridoma (MRL/lpr mice immunised with hZnT7 proteoliposomes)
B2: binds [2].

B3: hZnT7ΔHis-loop (residues His176 to Pro221 deleted), PA-tagged (natural protein, human)
chain: MLPLSIKDDEYKPPKFNLFGKISGWFRSILSDKTSRNLFFFLCLNLSFAFVELLYGIWSNCLGLISDSFHMFFDSTAILAGLAASVISKWRDNDAFSYGYVRAEVLAGFVNGLFLIFTAFFIFSEGVERALAPPDVHHERLLLVSILGFVVNLIGIFVFKHGGHGHSHGSGHGHSSLKETTGPSRQILQGVFLHILADTLGSIGVIASAIMMQNFGLMIADPICSILIAILIVVSVIPLLRESVGILMQRTPPLLENSLPQCYQRVQQLQGVYSLQEQHFWTLCSDVYVGTLKLIVAPDADARWILSQTHNIFTQAGVRQLYVQIDFAAM
notes: human zinc transporter ZnT7, UniProt Q8NEW0, with the major portion of the His-loop (His176 to Pro221) deleted; Primers are in Supplementary Data 1; The dimer (copies 2) follows from the 'OF-OF form' and the C2 symmetry; also called hZnT7∆His-loop; pcDNA3.1-PA-hZnT7ΔHis-loop; source: HEK293T, transfected (pcDNA3.1, PEI), purified (anti-PA-tag antibody beads, SEC)
B3: binds [1].

B4: Fab#1 (YN7114-08), Fab fragment of a mouse monoclonal antibody against hZnT7 (Fab, V domains shown)
VH: EVQLQESGPGLVAPSQSLSITCTVSGFSLTNYAVHWVRQSPGKGLEWLGVIWSNGRTDYNAAFISRLSISKDNSKSQVFFKMNSLQADDTAIYYCARKLAYEGAMDYWGQGTSVTVSS
VL: DIVLTQSPASLAVSLRRRATISCRASESVDGYGHSFMHWYQQKSGQPPKLLIYRASNLESGVPARFSGSGSRTDFTLTIDPVEADDAATYYCQQSNEDPYTFGSGTKLEIK
notes: the model holds Fab heavy chain residues 1-234; also in the deposited PDB entries; the model holds Fab light chain residues 1-218; also called the Fab fragment; source: Fab fragment of a mouse monoclonal antibody (hybridoma, MRL/lpr mice immunised with hZnT7 proteoliposomes)
B4: binds [3].

Source: PMC10409766, “Cryo-EM structures of human zinc transporter ZnT7 reveal the mechanism of Zn^2+ uptake into the Golgi apparatus” (Nature Communications, 2023)
